Here are results for one substance from article PMC4229036.

This experiment deals with Donor-labeled human factor Xa (fluorescein-EGR-chloromethylketone at the active site) (human). Nature of the experiment: fluorescence polarisation.

“Recombinant human factor Va (FVa2) with a N2181Q mutation (natural protein)”: the fluorescence anisotropy of active-site fluorescein (200 µM C6PS) amounted to 0.21, the fluorescence anisotropy of active-site fluorescein (400 µM C6PS) worked out at 0.22, the fluorescence anisotropy of active-site fluorescein (700 µM C6PS) is 0.22 and the fluorescence anisotropy of active-site fluorescein (on membranes) is 0.22.
